Measurements published in publication PMC4391263, “Alpers disease mutations in human DNA polymerase gamma cause catalytic defects in mitochondrial DNA replication by distinct mechanisms”.

B1: 25-mer/45-mer primer-template (dsDNA)
DNA 1: GCCTCGCAGCCGTCCAACCAACTCA
DNA 2: GGACGGCATTGGATCGAGGTTGAGTTGGTTGGACGGCTGCGAGGC
B2: 25-mer/73-mer primer-template (dsDNA)
DNA 1: GCCTCGCAGCCGTCCAACCAACTCA
DNA 2: CCCCACCTGCAGGCATGCAAGCTTGGCACTGGCCGTCGTTTTACCTCTTGAGTTGGTTGGACGGCTGCGAGGC

What was measured:
[1] = molecular target: T1, Pol-γA P1073L (exo+);Pol-γB accessory subunit (Homo sapiens;Homo sapiens, UniProt P54098;Q9UHN1 26-1239;26-485, P1073L|); experiment: global fit of processive polymerization time course; 12.5 mM MgCl2; dATP, dCTP, TTP 5 μM each; 12.5 mM Mg2+, 37 °C; enzyme and DNA preincubated, rapid quench flow; buffer, salt and pH not given in the material. Table 1 WT Kd (9.9 ± 2.1 nM) is asterisked as apparently earlier data and not listed; conditions: protein: recombinant;recombinant; tags: ;; copies: 1;2; label: 5'-32P primer; 5' overhang 20 nt on template, recessed primer 3' end
[2] = molecular target: Pol-γA S305R (exo+);Pol-γB accessory subunit (Homo sapiens;Homo sapiens, UniProt P54098;Q9UHN1 26-1239;26-485, S305R|); experiment: global fit of pre-steady-state single-nucleotide incorporation kinetics (quench flow, DNA titration); 12.5 mM Mg2+, dATP; 12.5 mM Mg2+, 37 °C; enzyme and DNA preincubated, rapid quench flow; buffer, salt and pH not given in the material. Table 1 WT Kd (9.9 ± 2.1 nM) is asterisked as apparently earlier data and not listed; conditions: protein: recombinant;recombinant; tags: ;; copies: 1;2; label: 5'-32P primer; 5' overhang 20 nt on template, recessed primer 3' end
[3] = molecular target: T1, Pol-γA P1073L (exo+);Pol-γB accessory …; experiment: pre-steady-state single-nucleotide incorporation kinetics; 12.5 mM Mg2+, dATP; 12.5 mM Mg2+, 37 °C; enzyme and DNA preincubated, rapid quench flow; buffer, salt and pH not given in the material. Table 1 WT Kd (9.9 ± 2.1 nM) is asterisked as apparently earlier data and not listed; conditions: protein: recombinant;recombinant; tags: ;; copies: 1;2; label: 5'-32P primer; 5' overhang 20 nt on template, recessed primer 3' end
[4] = molecular target: Pol-γA wild-type (exo+);Pol-γB accessory subunit (Homo sapiens;Homo sapiens, UniProt P54098;Q9UHN1 26-1239;26-485, |); experiment: global fit of processive polymerization time course; 12.5 mM MgCl2; dATP, dGTP, TTP 5 μM each; 12.5 mM Mg2+, 37 °C; enzyme and DNA preincubated, rapid quench flow; buffer, salt and pH not given in the material. Table 1 WT Kd (9.9 ± 2.1 nM) is asterisked as apparently earlier data and not listed; conditions: protein: recombinant;recombinant; tags: ;; copies: 1;2; 5' overhang 48 nt on template, recessed primer 3' end
Sequence of Pol-γA wild-type (exo+);Pol-γB accessory subunit (P54098 26-1239, chain 1 of 2): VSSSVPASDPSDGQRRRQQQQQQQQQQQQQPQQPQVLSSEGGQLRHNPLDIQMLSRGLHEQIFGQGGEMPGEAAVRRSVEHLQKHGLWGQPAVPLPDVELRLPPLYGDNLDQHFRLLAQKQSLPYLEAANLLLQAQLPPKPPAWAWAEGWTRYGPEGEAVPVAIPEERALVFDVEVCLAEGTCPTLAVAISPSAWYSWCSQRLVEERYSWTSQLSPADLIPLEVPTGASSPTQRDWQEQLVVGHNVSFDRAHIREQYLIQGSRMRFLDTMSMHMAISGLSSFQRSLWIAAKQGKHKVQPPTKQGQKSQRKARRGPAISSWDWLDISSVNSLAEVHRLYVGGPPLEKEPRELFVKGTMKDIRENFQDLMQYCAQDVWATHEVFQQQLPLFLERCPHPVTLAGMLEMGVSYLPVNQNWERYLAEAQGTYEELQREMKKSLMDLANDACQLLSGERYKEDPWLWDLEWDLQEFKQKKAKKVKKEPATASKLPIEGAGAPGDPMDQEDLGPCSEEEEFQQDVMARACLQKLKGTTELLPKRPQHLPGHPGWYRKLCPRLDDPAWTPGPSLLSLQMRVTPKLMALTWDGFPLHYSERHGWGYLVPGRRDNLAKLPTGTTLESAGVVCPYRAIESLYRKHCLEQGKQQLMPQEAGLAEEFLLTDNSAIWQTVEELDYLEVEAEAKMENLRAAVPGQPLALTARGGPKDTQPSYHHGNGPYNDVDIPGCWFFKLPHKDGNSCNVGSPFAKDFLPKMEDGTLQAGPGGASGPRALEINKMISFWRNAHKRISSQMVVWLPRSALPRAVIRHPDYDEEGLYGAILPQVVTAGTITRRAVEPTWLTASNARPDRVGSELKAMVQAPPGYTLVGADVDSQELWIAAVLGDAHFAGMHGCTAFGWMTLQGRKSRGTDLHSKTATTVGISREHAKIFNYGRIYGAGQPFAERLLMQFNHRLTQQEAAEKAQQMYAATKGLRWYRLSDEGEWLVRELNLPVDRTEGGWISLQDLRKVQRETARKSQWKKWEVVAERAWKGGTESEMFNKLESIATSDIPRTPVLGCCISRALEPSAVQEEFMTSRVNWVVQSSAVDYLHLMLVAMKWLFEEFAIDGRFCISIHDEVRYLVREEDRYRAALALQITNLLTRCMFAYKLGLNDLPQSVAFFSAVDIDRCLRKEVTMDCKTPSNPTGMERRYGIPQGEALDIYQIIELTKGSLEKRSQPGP
Sequence of Pol-γA wild-type (exo+);Pol-γB accessory subunit (Q9UHN1 26-485, chain 2 of 2): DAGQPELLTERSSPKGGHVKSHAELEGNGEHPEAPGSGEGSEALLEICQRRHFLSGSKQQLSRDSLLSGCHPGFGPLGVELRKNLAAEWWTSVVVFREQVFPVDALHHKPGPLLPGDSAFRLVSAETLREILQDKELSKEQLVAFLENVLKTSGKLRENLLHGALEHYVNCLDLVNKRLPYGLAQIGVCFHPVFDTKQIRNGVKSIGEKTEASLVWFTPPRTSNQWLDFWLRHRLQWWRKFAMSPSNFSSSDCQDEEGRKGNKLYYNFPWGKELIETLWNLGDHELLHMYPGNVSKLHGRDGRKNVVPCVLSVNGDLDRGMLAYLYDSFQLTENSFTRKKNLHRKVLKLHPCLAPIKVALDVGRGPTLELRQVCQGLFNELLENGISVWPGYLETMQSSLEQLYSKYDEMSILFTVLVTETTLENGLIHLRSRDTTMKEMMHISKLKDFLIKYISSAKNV

T1 sequence (P54098 26-1239 P1073L, chain 1 of 2): as the sequence (P54098 26-1239, chain 1 of 2) above, with P1048L counted along it
T1 sequence (Q9UHN1 26-485, chain 2 of 2): as the sequence (Q9UHN1 26-485, chain 2 of 2) above
Sequence of Pol-γA S305R (exo+);Pol-γB accessory subunit (P54098 26-1239 S305R, chain 1 of 2): as the sequence (P54098 26-1239, chain 1 of 2) above, with S280R counted along it
Sequence of Pol-γA S305R (exo+);Pol-γB accessory subunit (Q9UHN1 26-485, chain 2 of 2): as the sequence (Q9UHN1 26-485, chain 2 of 2) above

| Binder | Kd [1] [nM] | Kd [2] [nM] | Kd [3] [nM] | Kd [4] [nM] |
| --- | --- | --- | --- | --- |
| B1 | 15 | 100 ± 4 | 10.2 ± 1.2 |  |
| B2 |  |  |  | 15 |
